Experimental data reported in patent publication US20190359663A1.

Key:
[1] = biological target: L-FABP bound to arachidonic acid (human) (UniProt P07148); assay: sandwich ELISA; L-FABP stored at 37 C for two weeks in BSA-containing buffer; sample stored at 4 C = 100 (FIG. 19)
[2] = biological target: wild type human L-FABP protein (liver-type fatty acid-binding protein) (human) (UniProt P07148); assay: as above
[3] = biological target: L-FABP bound to oleic acid (human) (UniProt P07148); assay: sandwich ELISA; L-FABP stored at 37 C for two weeks in BSA-containing buffer; sample stored at 4 C = 100 (FIG. 20)
[4] = biological target: wild type human L-FABP protein (liver-type fatty acid-binding protein) (human) (UniProt P07148); assay: as above
[5] = biological target: L-FABP M19L/M74L/M113L (human) (UniProt P07148); assay: ELISA (kit not named in this example); OD ratio with and without oxidation treatment with 10 mM AAPH for 1 h at 25 C; FIG. 21
[6] = biological target: L-FABP WT treated with 0.5 mM AAPH (human) (UniProt P07148); assay: as above
[7] = biological target: L-FABP WT treated with 4 mM AAPH (human) (UniProt P07148); assay: as above
[8] = biological target: wild type human L-FABP protein (liver-type fatty acid-binding protein) (human) (UniProt P07148); assay: as above
L-FABP M19L (human) = L-FABP M19L (human) (UniProt P07148); assay: ELISA (kit not named in this example); OD ratio with and without oxidation treatment with 10 mM AAPH for 1 h at 25 C; FIG. 23
[9] = biological target: L-FABP M19L/M113L (human) (UniProt P07148); assay: as above
[10] = biological target: L-FABP M19L/M74L/M113L (human) (UniProt P07148); assay: as above
[11] = biological target: L-FABP WT treated with 0.5 mM AAPH (human) (UniProt P07148); assay: as above
[12] = biological target: L-FABP WT treated with 4 mM AAPH (human) (UniProt P07148); assay: as above
[13] = biological target: L-FABP bound to arachidonic acid (human) (UniProt P07148); assay: as above
[14] = biological target: L-FABP bound to oleic acid (human) (UniProt P07148); assay: as above
[15] = biological target: wild type human L-FABP protein (liver-type fatty acid-binding protein) (human) (UniProt P07148); assay: as above
[16] = biological target: L-FABP that had been oxidation-treated with 40 mM AAPH (human) (UniProt P07148); assay: sandwich ELISA (RENAPRO L-FABP Test TMB); L-FABP stored at 37 C, measured every week for two weeks; sample stored at 4 C = 100
[17] = biological target: wild type human L-FABP protein (liver-type fatty acid-binding protein) (human) (UniProt P07148); assay: as above
[18] = biological target: L-FABP M19L/M74L/M113L (human) (UniProt P07148); assay: sandwich ELISA (RENAPRO L-FABP test TMB); L-FABP reacted with 0 to 5 mM AAPH for 1 h at room temperature with BSA; untreated sample = 100
[19] = biological target: wild type human L-FABP protein (liver-type fatty acid-binding protein) (human) (UniProt P07148); assay: as above
[20] = biological target: L-FABP M19L/M74L/M113L (human) (UniProt P07148); assay: sandwich ELISA (RENAPRO L-FABP Test TMB); L-FABP stored at 25 C with BSA, measured every week for four weeks; sample stored at -80 C = 100
[21] = biological target: wild type human L-FABP protein (liver-type fatty acid-binding protein) (human) (UniProt P07148); assay: as above
[22] = biological target: L-FABP M19L/M74L/M113L (human) (UniProt P07148); assay: sandwich ELISA (RENAPRO L-FABP Test TMB); L-FABP stored at 37 C with BSA, measured every week for four weeks; sample stored at -80 C = 100
[23] = biological target: wild type human L-FABP protein (liver-type fatty acid-binding protein) (human) (UniProt P07148); assay: as above
[24] = biological target: L-FABP M19L/M74L/M113L (human) (UniProt P07148); assay: sandwich ELISA (RENAPRO L-FABP Test TMB) with 1 mass % BSA; oleic acid added to L-FABP at various concentrations, 1.5 h room temperature; untreated sample = 100
[25] = biological target: wild type human L-FABP protein (liver-type fatty acid-binding protein) (human) (UniProt P07148); assay: as above
[26] = biological target: L-FABP M19L/M74L/M113L (human) (UniProt P07148); assay: sandwich ELISA (RENAPRO L-FABP Test TMB) with 1 mass % BSA; arachidonic acid added to L-FABP at various concentrations, 1.5 h room temperature; untreated sample = 100
[27] = biological target: wild type human L-FABP protein (liver-type fatty acid-binding protein) (human) (UniProt P07148); assay: as above
[28] = biological target: L-FABP M19L/M74L/M113L (human) (UniProt P07148); assay: sandwich ELISA (RENAPRO L-FABP Test TMB) with 1 mass % BSA; 8-iso-prostaglandin F2α added to L-FABP at various concentrations, 1.5 h room temperature; untreated sample = 100
[29] = biological target: wild type human L-FABP protein (liver-type fatty acid-binding protein) (human) (UniProt P07148); assay: as above

- ELISA measured value, % of sample stored at 4 C [1]: 99.9 to 100%
- ELISA measured value, % of sample stored at 4 C [2]: 118 to 132%
- ELISA measured value, % of sample stored at 4 C [3]: 100 to 110%
- ELISA measured value, % of sample stored at 4 C [4]: 120 to 130%
- coefficient of change in oxidation (OD ratio, oxidation-treated / not treated) [5]: < 1.3
- coefficient of change in oxidation (OD ratio, oxidation-treated / not treated) [6]: < 1.3
- coefficient of change in oxidation (OD ratio, oxidation-treated / not treated) [7]: < 1.3
- coefficient of change in oxidation (OD ratio, oxidation-treated / not treated) [8]: 1.8
- coefficient of change in oxidation (OD ratio, oxidation-treated / not treated) (L-FABP M19L (human)): < 1.4
- coefficient of change in oxidation (OD ratio, oxidation-treated / not treated) [9]: < 1.4
- coefficient of change in oxidation (OD ratio, oxidation-treated / not treated) [10]: < 1.4
- coefficient of change in oxidation (OD ratio, oxidation-treated / not treated) [11]: < 1.4
- coefficient of change in oxidation (OD ratio, oxidation-treated / not treated) [12]: < 1.4
- coefficient of change in oxidation (OD ratio, oxidation-treated / not treated) [13]: < 1.4
- coefficient of change in oxidation (OD ratio, oxidation-treated / not treated) [14]: < 1.4
- coefficient of change in oxidation (OD ratio, oxidation-treated / not treated) [15]: 1.8
- ELISA measured value (OD 450 nm), % of sample stored at 4 C [16]: 94 to 102%
- ELISA measured value (OD 450 nm), % of sample stored at 4 C [17]: 114 to 130%
- ELISA measured value (OD 450 nm), % of untreated sample [18]: 102 to 107%
- ELISA measured value (OD 450 nm), % of untreated sample [19]: 112 to 121%
- ELISA measured value (OD 450 nm), % of sample stored at -80 C [20]: 101 to 111%
- ELISA measured value (OD 450 nm), % of sample stored at -80 C [21]: 110 to 128%
- ELISA measured value (OD 450 nm), % of sample stored at -80 C [22]: 104 to 113%
- ELISA measured value (OD 450 nm), % of sample stored at -80 C [23]: 117 to 143%
- ELISA measured value (OD 450 nm), % of untreated sample [24]: 92 to 107%
- ELISA measured value (OD 450 nm), % of untreated sample [25]: 100 to 124%
- ELISA measured value (OD 450 nm), % of untreated sample [26]: 88 to 103%
- ELISA measured value (OD 450 nm), % of untreated sample [27]: 104 to 220%
- ELISA measured value (OD 450 nm), % of untreated sample [28]: 96 to 101%
- ELISA measured value (OD 450 nm), % of untreated sample [29]: 95 to 118%
Substance: labeled antibody of the sandwich ELISA kit RENAPRO L-FABP Test TMB (CMIC HOLDINGS Co., Ltd.)
